Test results taken from paper PMC3268024, “Role of Linkers between Zinc Fingers in Spacing Recognition by Plant TFIIIA-Type Zinc-Finger Proteins”.

T1: ZPT2-14ZF (UniProt O22086 41-117)
T1 sequence: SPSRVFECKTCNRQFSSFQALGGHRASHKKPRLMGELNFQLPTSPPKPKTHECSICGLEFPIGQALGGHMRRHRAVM


Molecular target: T1, ZPT2-14ZF
Assay: EMSA; 25 mM HEPES-KOH pH 7.6, 40 mM KCl, 0.1% NP-40, 10 uM ZnCl2, 1 mg/mL BSA, 10% glycerol, 10 ug/mL poly(dI-dC), 1 mM DTT, 0.15 nM probe, 25 min at 20 C
Conditions: protein: recombinant; tags: MBP fusion cleaved with TEV protease; untagged; label: 32P end

Binder	Kd [nM]
AGT-5-AGT (dsDNA) DNA 1: CTCGAGAAATTTCCCGGAATTCCAGTGATCCAGTGGCCGGAATTTCCCGGGGGGATCC DNA 2: GGATCCCCCCGGGAAATTCCGGCCACTGGATCACTGGAATTCCGGGAAATTTCTCGAG	9.1 ± 1.2
AGT-5-ACT (dsDNA) DNA 1: CTCGAGAAATTTCCCGGAATTCCAGTGATCCACTGGCCGGAATTTCCCGGGGGGATCC DNA 2: GGATCCCCCCGGGAAATTCCGGCCAGTGGATCACTGGAATTCCGGGAAATTTCTCGAG	21.7 ± 3.4
AGT-10-ACT (dsDNA) DNA 1: CTCGAGAAATTTCCCGGAATTCCAGTGGGAAATTTCACTGGCCGGAATTTCCCGGGGGGATCC DNA 2: GGATCCCCCCGGGAAATTCCGGCCAGTGAAATTTCCCACTGGAATTCCGGGAAATTTCTCGAG	10.4 ± 1.6
ACT-10-AGT (dsDNA) DNA 1: CTCGAGAAATTTCCCGGAATTCCACTGGGAAATTTCAGTGGCCGGAATTTCCCGGGGGGATCC DNA 2: GGATCCCCCCGGGAAATTCCGGCCACTGAAATTTCCCAGTGGAATTCCGGGAAATTTCTCGAG	11.6 ± 1.9
